From patent publication US12215133 (BRIGHTGENE BIO MEDICAL TECHNOLOGY, dated 2025)

B1: BG128 (peptide)
peptide: YXEGTFTSDYSIXLDKIAQKAFVQWLIAGGPSSGAPPPSK
modifications: Aib (2-aminoisobutyric acid) at positions 2 and 13; Lys at position 40 carries on its side chain AEEEA-AEEEA-gamma-Glu-icosanedioic acid (Fmoc-AEEEA-OH, Fmoc-AEEEA-OH, Fmoc-Glu-OtBu and 20-(tert-butoxy)-20-oxoicosanoic acid condensed in turn); C-terminal amide (made on Rink MBHA Amide resin)
B2: BGM125 (peptide)
peptide: YXEGTFTSDYSIXLDKIAQKAFVQWLIAGGPSSGAPPPS
modifications: Aib at positions 2 and 13; by the synthesis order the Lys(Alloc) at position 16 carries AEEEA-AEEEA-gamma-Glu-icosanedioic acid on its side chain; C-terminal amide (Rink MBHA Amide resin)

What was measured:
GIP receptor = biological target: T1, GIP receptor; test: cell-based or functional assay
T1 sequence (P48546 whole entry, species assumed, looked up): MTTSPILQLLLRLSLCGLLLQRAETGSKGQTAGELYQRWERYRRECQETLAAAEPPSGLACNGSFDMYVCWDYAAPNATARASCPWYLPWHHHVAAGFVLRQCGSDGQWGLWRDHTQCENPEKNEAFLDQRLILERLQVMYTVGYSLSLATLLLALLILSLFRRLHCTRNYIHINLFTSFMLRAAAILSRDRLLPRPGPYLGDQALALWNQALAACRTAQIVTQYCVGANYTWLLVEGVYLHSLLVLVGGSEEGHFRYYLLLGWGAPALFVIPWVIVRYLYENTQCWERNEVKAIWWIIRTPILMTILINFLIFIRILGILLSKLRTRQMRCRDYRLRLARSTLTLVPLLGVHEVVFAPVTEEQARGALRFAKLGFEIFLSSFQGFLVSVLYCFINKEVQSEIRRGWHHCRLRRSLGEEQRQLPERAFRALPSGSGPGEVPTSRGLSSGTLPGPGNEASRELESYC

GLP-1 receptor = test: cell-based or functional assay

Binder	cAMP experimental result of GIP receptor, EC50 (GIP receptor)	cAMP experimental result of GLP-1 receptor, EC50 (GLP-1 receptor)
B1	0.279 nM	0.11 nM
B2	0.684 nM	0.0692 nM
